Reference: patent US20030049702A1

What was measured:
[1] = target: GST-DR4 (residues 269-468) (UniProt O00220); test: GST pull-down on glutathione-Sepharose, immunoblot against input lane
[2] = target: GST-DR4 (residues 269-468) (UniProt O00220); test: Scatchard analysis: DAP3-His6 at 0.1-1 µM with 1.0 µg GST-DR4 on glutathione-Sepharose, free and bound DAP3 by immunoblot densitometry

Chain of GST-DR4 (residues 269-468) (O00220 269-468, form in doubt): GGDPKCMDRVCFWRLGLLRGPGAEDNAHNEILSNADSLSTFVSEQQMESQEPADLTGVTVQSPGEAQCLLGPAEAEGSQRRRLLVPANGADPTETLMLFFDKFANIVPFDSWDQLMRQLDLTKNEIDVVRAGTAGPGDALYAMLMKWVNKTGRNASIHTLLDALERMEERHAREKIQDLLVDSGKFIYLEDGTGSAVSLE

## DAP3-His6
[1]
  percent of input bound: 10 to 20%
[2]
  Kd: 16 nM
